Assay results: the Human Domainome abundance scans (Beltran et al. 2025)
± gives the uncertainty stated by the source.

B1: Connector enhancer of kinase suppressor of ras 2, residues 9 to 71; numbered along this chain, Q8WXI2 (parent)
chain: SKWSPSQVVDWMKGLDDCLQQYIKNFEREKISGDQLLRITHQELEDLGVSRIGHQELILEAVD

Variants of: B1
Test: abundance fitness (aPCA) (normalised: wild type 0, dead -1); higher = more abundant; growth selection in yeast, the domain comes from the species named
Conditions: Homo sapiens
Variant H41P has an abundance fitness of -0.002 ± 0.033. For H41T, the abundance fitness was -0.031 ± 0.033. H41L gave an abundance fitness of -0.234 ± 0.027. H41G gave an abundance fitness of -0.077 ± 0.025. W3N gave an abundance fitness of -0.545 ± 0.083. Variant W3H has an abundance fitness of -0.772 ± 0.13. E27F gave an abundance fitness of -0.47 ± 0.16. E27P gave an abundance fitness of -0.703 ± 0.065. In the case of C18I, the abundance fitness is reported as -0.439 ± 0.061. Variant C18S has an abundance fitness of -0.024 ± 0.022. For C18T, the abundance fitness was -0.221 ± 0.04. With C18F the abundance fitness was -0.823 ± 0.077. With C18M the abundance fitness was -0.442 ± 0.042. Work on H54V yielded an abundance fitness of -0.982 ± 0.05. Variant H54E has an abundance fitness of -0.412 ± 0.053. For E56I, the abundance fitness was -0.102 ± 0.099. Work on E56H yielded an abundance fitness of -0.121 ± 0.051. E56W showed an abundance fitness of -0.362 ± 0.041. With E56Y the abundance fitness was -0.333 ± 0.062. For D17V, the abundance fitness was -0.359 ± 0.028. D17Y showed an abundance fitness of -0.203 ± 0.054. D17A showed an abundance fitness of -0.137 ± 0.025. With E43T the abundance fitness was -0.151 ± 0.026. Work on E43A yielded an abundance fitness of -0.143 ± 0.03. With E43R the abundance fitness was 0.006 ± 0.023. D63E showed an abundance fitness of -0.012 ± 0.045. Variant D63W has an abundance fitness of -0.311 ± 0.12. D63R gave an abundance fitness of 0.108 ± 0.046. Variant D63P has an abundance fitness of -0.792 ± 0.14. I58S gave an abundance fitness of -0.714 ± 0.065. Variant I58H has an abundance fitness of -0.268 ± 0.29. I58N showed an abundance fitness of -0.851 ± 0.12. Variant Q21C has an abundance fitness of -0.022 ± 0.048. Q21W gave an abundance fitness of -0.933 ± 0.062. Q21V showed an abundance fitness of -0.072 ± 0.024. D10I gave an abundance fitness of -0.258 ± 0.042. Work on D10M yielded an abundance fitness of -0.169 ± 0.031. T40C showed an abundance fitness of -0.426 ± 0.04. In the case of L59S, the abundance fitness is reported as -0.652 ± 0.043. In the case of L59A, the abundance fitness is reported as -0.653 ± 0.032. In the case of L59F, the abundance fitness is reported as -0.358 ± 0.056. In the case of L59K, the abundance fitness is reported as -0.232 ± 0.034. With L59N the abundance fitness was -0.741 ± 0.074. For L59G, the abundance fitness was -0.674 ± 0.032. In the case of L59V, the abundance fitness is reported as -0.552 ± 0.03. For G53E, the abundance fitness was 0.085 ± 0.039. Work on G53M yielded an abundance fitness of -0.009 ± 0.049. S1A showed an abundance fitness of -0.2 ± 0.046. S1N gave an abundance fitness of 0.063 ± 0.053. Variant D34L has an abundance fitness of -0.128 ± 0.025. Variant D34P has an abundance fitness of -0.105 ± 0.031. V9A showed an abundance fitness of -0.064 ± 0.028. Work on V9Y yielded an abundance fitness of -0.757 ± 0.076. Work on D16H yielded an abundance fitness of -0.358 ± 0.033. For I31P, the abundance fitness was -0.744 ± 0.061. Variant S50G has an abundance fitness of -0.258 ± 0.09. Q20A gave an abundance fitness of -0.177 ± 0.028. Q20D gave an abundance fitness of -0.259 ± 0.033. Variant Q20N has an abundance fitness of -0.117 ± 0.043. P5F showed an abundance fitness of -0.161 ± 0.047. Work on P5W yielded an abundance fitness of -0.095 ± 0.044. For P5T, the abundance fitness was 0.043 ± 0.03. For P5K, the abundance fitness was -0.514 ± 0.048. With V49H the abundance fitness was -0.926 ± 0.079. Work on V49N yielded an abundance fitness of -1.1 ± 0.13. For V49L, the abundance fitness was -0.621 ± 0.028. Variant V49P has an abundance fitness of -0.875 ± 0.056. For V49F, the abundance fitness was -0.866 ± 0.12. Work on V62F yielded an abundance fitness of -0.921 ± 0.084. In the case of K2A, the abundance fitness is reported as -0.239 ± 0.043. Variant K2V has an abundance fitness of -0.133 ± 0.034. D46P showed an abundance fitness of -0.813 ± 0.076. With D46V the abundance fitness was -0.11 ± 0.032. In the case of D46Y, the abundance fitness is reported as -0.194 ± 0.04. Variant D46E has an abundance fitness of -0.013 ± 0.032. Work on D46Q yielded an abundance fitness of -0.032 ± 0.048. Q42C gave an abundance fitness of -0.395 ± 0.042. With Q42V the abundance fitness was -0.258 ± 0.024. With Q42K the abundance fitness was 0.002 ± 0.051. In the case of Q42S, the abundance fitness is reported as -0.128 ± 0.021. For Q42G, the abundance fitness was -0.193 ± 0.028. Q42E showed an abundance fitness of -0.119 ± 0.034. Q42Y gave an abundance fitness of -0.848 ± 0.1. Variant Q42F has an abundance fitness of -0.618 ± 0.077. Variant Q42W has an abundance fitness of -0.767 ± 0.047. In the case of Q42A, the abundance fitness is reported as -0.083 ± 0.017. M12I showed an abundance fitness of -0.165 ± 0.031. Work on M12Q yielded an abundance fitness of -1.06 ± 0.087. M12T gave an abundance fitness of -0.849 ± 0.072. M12A gave an abundance fitness of -0.658 ± 0.037. L36S gave an abundance fitness of -0.846 ± 0.04. L36H showed an abundance fitness of -0.971 ± 0.12. For L36W, the abundance fitness was -1.04 ± 0.12. L36A showed an abundance fitness of -0.958 ± 0.056. Work on L37R yielded an abundance fitness of -0.145 ± 0.023. For L37K, the abundance fitness was -0.132 ± 0.047. L37E gave an abundance fitness of -0.193 ± 0.031. L44I gave an abundance fitness of -0.982 ± 0.23. Work on L44R yielded an abundance fitness of -0.753 ± 0.036. With L44V the abundance fitness was -0.79 ± 0.045. With L44G the abundance fitness was -0.804 ± 0.047. Variant L44E has an abundance fitness of -0.82 ± 0.067. In the case of L44W, the abundance fitness is reported as -0.964 ± 0.06. For L44H, the abundance fitness was -0.914 ± 0.089. For Q55H, the abundance fitness was -0.861 ± 0.052. Work on Q55I yielded an abundance fitness of -0.281 ± 0.042. For Q55R, the abundance fitness was 0.061 ± 0.024. Q55N gave an abundance fitness of -1.01 ± 0.091. Q55W gave an abundance fitness of -1.14 ± 0.06. Q55E gave an abundance fitness of -0.954 ± 0.097. Work on G14K yielded an abundance fitness of -0.264 ± 0.045. For G14C, the abundance fitness was -0.34 ± 0.036. For G14R, the abundance fitness was -0.3 ± 0.025. G14V showed an abundance fitness of -0.895 ± 0.053. Work on G14I yielded an abundance fitness of -0.922 ± 0.13. G14E gave an abundance fitness of -0.225 ± 0.034. Variant G14W has an abundance fitness of -0.986 ± 0.1. Work on K30N yielded an abundance fitness of -0.075 ± 0.057. Work on K30Q yielded an abundance fitness of -0.036 ± 0.037. In the case of K30V, the abundance fitness is reported as -0.519 ± 0.031. In the case of S32E, the abundance fitness is reported as -0.341 ± 0.042. S32A showed an abundance fitness of -0.077 ± 0.03. With S32N the abundance fitness was 0.024 ± 0.043. Variant S32Y has an abundance fitness of -0.264 ± 0.056. In the case of G33Y, the abundance fitness is reported as -0.257 ± 0.039. Work on G33R yielded an abundance fitness of -0.631 ± 0.028. With G33V the abundance fitness was -0.417 ± 0.041. E29F gave an abundance fitness of -0.148 ± 0.036. E29L showed an abundance fitness of -0.179 ± 0.024. Work on E29H yielded an abundance fitness of 0.003 ± 0.044. With E29W the abundance fitness was -0.215 ± 0.03. G48C showed an abundance fitness of -0.698 ± 0.055. With G48T the abundance fitness was -0.865 ± 0.08. In the case of I52D, the abundance fitness is reported as -0.123 ± 0.04. In the case of I52N, the abundance fitness is reported as -0.139 ± 0.057. Variant I52W has an abundance fitness of -0.174 ± 0.039. Q35R gave an abundance fitness of 0.033 ± 0.03. For Q35N, the abundance fitness was -0.119 ± 0.12. Q35G showed an abundance fitness of -0.485 ± 0.033. F26G showed an abundance fitness of -0.727 ± 0.035. In the case of F26V, the abundance fitness is reported as -0.485 ± 0.027. Variant F26T has an abundance fitness of -0.774 ± 0.069. With S4Y the abundance fitness was -0.491 ± 0.068. For S4G, the abundance fitness was -0.128 ± 0.025. For S4P, the abundance fitness was -0.393 ± 0.057. In the case of S4W, the abundance fitness is reported as -0.958 ± 0.075. S4A showed an abundance fitness of -0.835 ± 0.044. For R51Q, the abundance fitness was 0.071 ± 0.035. Variant R51S has an abundance fitness of 0.088 ± 0.027. With N25D the abundance fitness was -0.08 ± 0.047. N25M gave an abundance fitness of -0.014 ± 0.045. Work on N25F yielded an abundance fitness of -0.078 ± 0.048. Work on N25C yielded an abundance fitness of -0.066 ± 0.03. L15Y showed an abundance fitness of -0.636 ± 0.067. With L15A the abundance fitness was -0.652 ± 0.034. For L15K, the abundance fitness was -0.48 ± 0.032. For L15P, the abundance fitness was -0.712 ± 0.043. In the case of L15V, the abundance fitness is reported as -0.42 ± 0.027. With L15W the abundance fitness was -0.266 ± 0.04. Work on L15I yielded an abundance fitness of -0.446 ± 0.046. Q7H gave an abundance fitness of -0.301 ± 0.045. For Q7W, the abundance fitness was -0.803 ± 0.051. In the case of Q7V, the abundance fitness is reported as -0.631 ± 0.032. In the case of R38Y, the abundance fitness is reported as -0.446 ± 0.093. With R38N the abundance fitness was -0.098 ± 0.065. For L57K, the abundance fitness was 0.021 ± 0.049. With L57I the abundance fitness was -0.242 ± 0.048.
